The target in this experiment is T1, RAPTOR (UniProt Q8N122 1-1335).
T1 construct: Endogenous protein in lysates of human cancer cell lines
Nature of the experiment: co-immunoprecipitation with anti-FAK from whole-cell lysates of HCT116 and MCF7 cells in mitosis, immunoblot with anti-RAPTOR. On the procedure: The immunoprecipitates were washed and resolved by SDS-PAGE. For western blots: primary antibody: RICTOR, mTOR (Cell Signaling), Raptor, FAK, β1-integrin, TTC3 (AbCam).
Standard protocols were used for SDS-PAGE electrophoresis and the following primary antibodies: α-RICTOR, α-mTOR, Phospho-AKT-Ser473 (D9E; Cell Signaling Technology) and α-RAPTOR, α-FAK, α-β1-integrin, α-TTC3, Pan-AKT, and GAPDH (Abcam). For immunoprecipitation studies, cells were synchronized with 200 ng/mL of nocodazole for 12 hours and then released for 2 hours. Cells were rinsed with PBS, fixed with 0.37% formalde-hyde, and quenched with 0.25 mol/L glycine. Cell lysates were prepared in lysis buffer [1% Triton X-100, 150 mmol/L NaCl, 3 mmol/L MgCl, 40 mmol/L HEPES (pH 7.5), 50 mmol/L NaF, EDTA-free protease inhibitor and phosphatase inhibitor (Roche)] and centrifuged at 14,000×g for 10 minutes. Supernatant (250 μg) was incubated with the indicated antibodies [α-FAK (AbCam), α-RICTOR (Santa Cruz Biotechnology)], for 4 hours at 4° C. with rotation and then with 50 μL of a 50% slurry of protein G-sepharose (Roche) for 1 hour Immunoprecipitates were washed and resolved by SDS-PAGE electrophoresis.
To identify an upstream regulator that might activate mTORC2 signaling during asymmetric division, an immunoprecipitation approach was used to identify proteins that physically interact with the mTORC2 complex during mitosis. […]
(Immunoblotting shows a protein as a band on a membrane.)

T1 sequence (Q8N122 whole entry): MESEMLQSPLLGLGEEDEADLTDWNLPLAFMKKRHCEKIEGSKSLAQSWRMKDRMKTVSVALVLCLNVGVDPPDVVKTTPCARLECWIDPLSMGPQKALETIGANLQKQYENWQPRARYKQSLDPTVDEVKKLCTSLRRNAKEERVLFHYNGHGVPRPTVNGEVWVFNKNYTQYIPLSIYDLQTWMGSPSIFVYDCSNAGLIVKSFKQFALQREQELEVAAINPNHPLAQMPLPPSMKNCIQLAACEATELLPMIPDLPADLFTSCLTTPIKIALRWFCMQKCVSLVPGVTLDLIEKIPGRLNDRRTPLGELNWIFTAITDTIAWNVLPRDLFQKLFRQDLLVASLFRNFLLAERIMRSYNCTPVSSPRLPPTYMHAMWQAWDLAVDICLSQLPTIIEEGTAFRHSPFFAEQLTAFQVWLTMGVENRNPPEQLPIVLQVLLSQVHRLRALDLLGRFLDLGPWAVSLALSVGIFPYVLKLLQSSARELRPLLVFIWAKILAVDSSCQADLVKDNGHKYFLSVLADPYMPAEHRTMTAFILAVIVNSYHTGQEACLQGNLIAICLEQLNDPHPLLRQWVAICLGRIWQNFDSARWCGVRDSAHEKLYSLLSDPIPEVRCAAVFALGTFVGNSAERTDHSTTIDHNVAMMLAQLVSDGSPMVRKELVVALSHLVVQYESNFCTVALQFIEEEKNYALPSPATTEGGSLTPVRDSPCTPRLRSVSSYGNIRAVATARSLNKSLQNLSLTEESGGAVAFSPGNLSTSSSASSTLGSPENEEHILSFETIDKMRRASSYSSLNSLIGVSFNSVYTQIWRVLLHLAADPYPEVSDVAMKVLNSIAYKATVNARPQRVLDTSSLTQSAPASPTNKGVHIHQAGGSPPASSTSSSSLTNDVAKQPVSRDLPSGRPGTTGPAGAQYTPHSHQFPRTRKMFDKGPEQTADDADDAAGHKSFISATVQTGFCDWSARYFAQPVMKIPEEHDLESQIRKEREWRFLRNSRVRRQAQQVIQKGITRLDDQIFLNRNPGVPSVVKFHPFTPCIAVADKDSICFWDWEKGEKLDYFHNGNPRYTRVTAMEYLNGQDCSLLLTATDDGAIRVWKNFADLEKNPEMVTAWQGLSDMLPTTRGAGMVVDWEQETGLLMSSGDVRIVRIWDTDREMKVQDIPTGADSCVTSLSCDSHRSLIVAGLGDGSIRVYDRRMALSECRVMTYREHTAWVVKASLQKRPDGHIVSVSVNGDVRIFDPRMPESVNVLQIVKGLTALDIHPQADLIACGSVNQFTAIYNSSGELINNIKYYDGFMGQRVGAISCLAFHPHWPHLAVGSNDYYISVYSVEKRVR

B1: focal adhesion kinase (FAK) (enzyme, human, UniProt Q05397 2-1052, looked up)
chain: AAAYLDPNLNHTPNSSTKTHLGTGMERSPGAMERVLKVFHYFESNSEPTTWASIIRHGDATDVRGIIQKIVDSHKVKHVACYGFRLSHLRSEEVHWLHVDMGVSSVREKYELAHPPEEWKYELRIRYLPKGFLNQFTEDKPTLNFFYQQVKSDYMLEIADQVDQEIALKLGCLEIRRSYWEMRGNALEKKSNYEVLEKDVGLKRFFPKSLLDSVKAKTLRKLIQQTFRQFANLNREESILKFFEILSPVYRFDKECFKCALGSSWIISVELAIGPEEGISYLTDKGCNPTHLADFTQVQTIQYSNSEDKDRKGMLQLKIAGAPEPLTVTAPSLTIAENMADLIDGYCRLVNGTSQSFIIRPQKEGERALPSIPKLANSEKQGMRTHAVSVSETDDYAEIIDEEDTYTMPSTRDYEIQRERIELGRCIGEGQFGDVHQGIYMSPENPALAVAIKTCKNCTSDSVREKFLQEALTMRQFDHPHIVKLIGVITENPVWIIMELCTLGELRSFLQVRKYSLDLASLILYAYQLSTALAYLESKRFVHRDIAARNVLVSSNDCVKLGDFGLSRYMEDSTYYKASKGKLPIKWMAPESINFRRFTSASDVWMFGVCMWEILMHGVKPFQGVKNNDVIGRIENGERLPMPPNCPPTLYSLMTKCWAYDPSRRPRFTELKAQLSTILEEEKAQQEERMRMESRRQATVSWDSGGSDEAPPKPSRPGYPSPRSSEGFYPSPQHMVQTNHYQVSGYPGSHGITAMAGSIYPGQASLLDQTDSWNHRPQEIAMWQPNVEDSTVLDLRGIGQVLPTHLMEERLIRQQQEMEEDQRWLEKEERFLKPDVRLSRGSIDREDGSLQGPIGNQHIYQPVGKPDPAAPPKKPPRPGAPGHLGSLASLSSPADSYNEGVKLQPQEISPPPTANLDRSNDKVYENVTGLVKAVIEMSSKIQPAPPEEYVPMVKEVGLALRTLLATVDETIPLLPASTHREIEMAQKLLNSDLGELINKMKLAQQYVMTSLQQEYKKQMLTAAHALAVDAKNLLDVIDQARLKMLGQTRPH
notes: Endogenous protein of the human cancer cell lines HCT116 and MCF7; lysates of formaldehyde-fixed cells were used for immunoprecipitation; also called PTK2
As to B1, the binding result was “no binding”.

(Values after US20150140013A1 (GENERAL HOSPITAL, published 2015).)
